What was measured:
[1] = Thermal stability, 5 minutes, residual activity by PMS-DCIP assay; type: physicochemical
Procedure: Table 4 indicates the results of thermal-stabilities of the enzymes. The enzyme (about 0.05 mg/ml) in 25 mM HEPES buffer, pH 7.5, containing 5% sucrose, 0.2 M NaCl, and 5 mM CaCl2 was incubated at temperature indicated in the table (4-60° C.) for 5 minutes, cooled in ice bath and assayed by PMS-DCIP spectrophotometric method. Remaining activity was expressed as relative activity against that obtained by 4° C. incubation.

[2] = pH stability, 3 hours at 25° C., residual activity by PMS-DCIP assay; type: physicochemical; details: relative to no incubation at pH 8.0
Procedure: Enzymes A, A′, A″ and B were incubated in buffers of various pH-values for 3 hours at 25° C. and the residual activities were assayed and expressed as relative values against that obtained by no incubation at pH 8.
Table 3 indicates the results of pH-stabilities of the enzymes. The enzyme (about 0.01 mg/ml) was incubated with 50 mM buffer containing 5% sucrose, 0.2 M NaCl, and 5 mM CaCl2 at 25° C. for 3 hours and assayed by PMS-DCIP spectrophotometric method. The buffers were Na-acetate, pH4 and 5, Tris-malate-NaOH, pH 6, 7 and 8, glycine-NaOH, pH 9 and 10. The values in the table are expressed as relative activity against that obtained by no incubation at pH 8.0.

[3] = Substrate specificity of purified enzymes, PMS-DCIP spectrophotometric assay; type: biochemical; details: A′ corrected 1.5-fold (purity about 65%)
Procedure: The enzymatic activity of the AADHs herein can be determined by methods known in the art, such as by photometric analysis using a spectrophotometer. In accordance with the present invention, one unit of enzyme activity was defined as the amount of enzyme which catalyzed the reduction of 1 μmole of DCIP per minute. The extinction coefficient of DCIP at pH 8.0 was taken as 15 mM^−1. In a preferred standard assay for determining the enzyme activity of the AADHs herein, a first cuvette includes a standard reaction mixture (1.0 ml) containing 0.1 mM DCIP, 1 mM PMS, 2 to 125 mM substrate, 50 mM Tris-malate-NaOH buffer (pH 8.0), and 10 μl of the enzyme solution. A second cuvette, i.e., a reference cuvette, contains all the above components except the substrate. The reference cuvette is used to standardize the background absorbance resulting from a substrate-independent (endogenous) reaction. Preferably, a double beam spectrophotometer is used to determine the activity of the enzyme in the presence of a substrate with respect to a standard reaction mixture in the absence of the substrate.
Enzyme activities of each clone (cell free extract, soluble fraction and membrane fraction) were measured by photometric analysis. The cells of each clone were inoculated in 5 ml of MB medium in a test tube and cultivated at 30° C. for 24 hours. The resulting broth was transferred into 200 ml of fresh MB medium in 500 ml flask and the flask was shaken on the rotary flask shaker at 30° C. for 24 hours. The cells were collected by centrifugation at 6,000×g for 10 minutes and washed with 40 ml of cold buffer consisting of 50 mM Tris-HCl, pH 7.5, 5 mM MgCl2 and 0.5 mM phenylmethylsulfonyl fluoride and suspended with the same buffer to prepare cell suspension of 1 g wet cells per 5 ml. The cell suspension was subjected twice to a French press cell disruptor (1,500 kg/cm^2) and the resulting homogenate was centrifuged at 6,000×g for 10 minutes to remove cell debris. Thus obtained cell free extract (CFE) was centrifuged at 100,000×g for 60 minutes. The resulting supernatant and pellet were collected as the cytosol fraction and the membrane fraction, respectively and subjected to PMS-DCIP assay as follows. The enzyme reaction mixture (1.0 ml) contained 100 μM DCIP, 1 mM PMS, 50 mM Tris malate-NaOH buffer, pH 8.0, a substrate and the enzyme (10 μl). Substrate-dependent decreasing rate of absorbance of DCIP at 600 nm was measured at 25° C. by using a Kontron spectrophotometer UVIKON 810. […] In the A-group, there were three types, A, A′ and A″ each of which was distinguished from each other by their physical map of the DNA carried on each plasmid. B- or C-group each consisted of only one type of protein derived from one region of the chromosomal DNA.

[4] = Products of enzyme reactions with purified enzymes, identified by TLC and/or HPLC; type: biochemical
Procedure: Products formed from a substrate in the reaction with Enzyme A, Enzyme A′, Enzyme A″ or Enzyme B were analyzed by thin layer chromatography (TLC) and/or high performance liquid chromatography (HPLC) with authentic compounds. […] Similarly to the reactivity for L-sorbosone, D-glucosone can be converted to 2KD by all of above mentioned AADHs. A group enzymes can produce 2KD from D-fructose whose possible direct product is D-glucosone. […]
Enzyme reactions with purified Enzyme A or Enzyme B and various substrates were performed as described in Example 11.

[5] = Optimal pH, PMS-DCIP assay in buffers of various pH; type: biochemical
Procedure: The Enzymes A″ and B have a relatively wide pH range toward a lower pH, compared with the Enzymes A and A′.
The enzyme activity was assayed by the PMS-DCIP spectrophotometric assay using various pH buffers. The buffers were 50 mM Tris-malate-NaOH, pH 6.0, 6.5, 7.0, 7.5, 8.0 and 8.5; 50 mM glycine-NaOH, pH 9.0 and 9.5. The extinction coefficients of DCIP at pH 6.0, 6.5, 7.0, 7.5, 8.0, 8.5, 9.0 and 9.5 were taken as 10.8, 13.2, 14.5, 14.9, 15.0, 15.1, 15.1 and 15.1, respectively. […] The Enzymes A″ and B had relatively wide pH range toward lower pH, compared with the Enzymes A and A′.

Substrate specificity ([3]; 2 mM L-Sorbosone): 23.15 units/mg of purified protein | Substrate specificity ([3]; 50 mM D-Glucose): 2.4 units/mg of purified protein | Substrate specificity ([3]; 50 mM D-Mannitol): 7.1 units/mg of purified protein | Substrate specificity ([3]; 50 mM Isopropanol): 76.8 units/mg of purified protein | Substrate specificity ([3]; 50 mM n-Propanol): 139.6 units/mg of purified protein | Substrate specificity ([3]; 125 mM D-Fructose): 30.7 units/mg of purified protein | Substrate specificity ([3]; 125 mM D-Sorbitol): 14.0 units/mg of purified protein | Substrate specificity ([3]; 125 mM L-Sorbose): 47.4 units/mg of purified protein | Product ([4]; substrate D-Mannitol): D-Mannose | Product ([4]; substrate D-Sorbitol): D-glucose with L-gulose | Product ([4]; substrate L-Sorbose): L-sorbosone with 2KGA | Product ([4]; substrate L-Sorbosone): 2KGA
B1: Enzyme A: recombinant AADH of G. oxydans DSM No. 4025, amino acid sequence SEQ ID NO 5, plasmid p24D4/pSSA102R (protein)
chain: MKPTSLLWASAGALALLAAPAFAQVTPVTDELLANPPAGEWISYGQNQENYRHSPLTQITTENVGQLQLVWARGMQPGKVQVTPLIHDGVMYLANPGDVIQAIDAKTGDLIWEHRRQLPNIATLNSFGEPTRGMALYGTNVYFVSWDNHLVALDTATGQVTFDVDRGQGEDMVSNSSGPIVANGVIVAGSTCQYSPFGCFVSGHDSATGEELWRNYFIPRAGEEGDETWGNDYEARWMTGAWGQITYDPVTNLVHYGSTAVGPASETQRGTPGGTLYGTNTRFAVRPDTGEIVWRHQTLPRDNWDQECTFEMMVTNVDVQPSTEMEGLQSINPNAATGERRVLTGVPCKTGTMWQFDAETGEFLWARDTNYQNMIESIDENGIVTVNEDAILKELDVEYDVCPTFLGGRDWPSAALNPDSGIYFIPLNNVCYDMMAVDQEFTSMDVYNTSNVTKLPPGKDMIGRIDAIDISTGRTLWSVERAAANYSPVLSTGGGVLFNGGTDRYFRALSQETGETLWQTRLATVASGQAISYEVDGMQYVAIAGGGVSYGSGLNSALAGERVDSTAIGNAVYVFALPQ
modifications: Gluconobacter oxydans; SIGNAL (1)..(23)
Relative activity (thermal stability) ([1]; 4° C. for 5 minutes (reference)): 100.0% | Relative activity (thermal stability) ([1]; 20° C. for 5 minutes, relative to 4° C. incubation): 91.5% | Relative activity (thermal stability) ([1]; 30° C. for 5 minutes, relative to 4° C. incubation): 78.0% | Residual activity ([1]; 40° C. for 5 min): 20% | Relative activity (thermal stability) ([1]; 40° C. for 5 minutes, relative to 4° C. incubation): 19.9% | Relative activity (thermal stability) ([1]; 50° C. for 5 minutes, relative to 4° C. incubation): 4.1% | Relative activity (thermal stability) ([1]; 60° C. for 5 minutes, relative to 4° C. incubation): 2.9% | Relative activity (pH stability) ([2]; incubated at pH 4.0, 3 hours): 5.4% | Relative activity (pH stability) ([2]; incubated at pH 5.0, 3 hours): 32.0% | Relative activity (pH stability) ([2]; incubated at pH 6.0, 3 hours): 74.7% | Relative activity (pH stability) ([2]; incubated at pH 7.0, 3 hours): 76.9% | Relative activity (pH stability) ([2]; incubated at pH 8.0, 3 hours): 80.1% | Relative activity (pH stability) ([2]; incubated at pH 9.0, 3 hours): 60.1% | Relative activity (pH stability) ([2]; incubated at pH 10.0, 3 hours): 53.2% | Relative activity (pH stability) ([2]; incubated at pH 11.0, 3 hours): 31.0% | Relative activity (optimal pH) ([5]; assay pH 6.0, pH 8.0 = 100): 6.5% | Relative activity (optimal pH) ([5]; assay pH 6.5, pH 8.0 = 100): 13.0% | Relative activity (optimal pH) ([5]; assay pH 7.0, pH 8.0 = 100): 33.1% | Relative activity (optimal pH) ([5]; assay pH 7.5, pH 8.0 = 100): 57.7% | Relative activity (optimal pH) ([5]; assay pH 8.0): 100.0% | Relative activity (optimal pH) ([5]; assay pH 8.5, pH 8.0 = 100): 113.2% | Relative activity (optimal pH) ([5]; assay pH 9.0, pH 8.0 = 100): 50.0% | Relative activity (optimal pH) ([5]; assay pH 9.5, pH 8.0 = 100): 19.6%

From patent publication US6730503B1 (Roche Vitamins Inc., priority 1996, dated 2004)
